Patent publication US20210253718A1, “FRIZZLED5 PROTEIN-BINDING AGENTS” (Modmab Therapeutics Corporation, priority 2016, published 2021)

T1: FZD5 CRD (Homo sapiens, UniProt Q13467)
T1 construct: K29-T156; GPI anchor signal (C); expressed in transfected cells; host or cells: CHO cells, lentiviral pLenti-puro
T1 sequence (Q13467 29-156): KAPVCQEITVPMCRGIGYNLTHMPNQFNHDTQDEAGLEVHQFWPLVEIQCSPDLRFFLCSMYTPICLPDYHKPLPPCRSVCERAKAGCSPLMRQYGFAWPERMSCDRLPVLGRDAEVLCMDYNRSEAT

T2: FZD9 CRD (Homo sapiens, UniProt O00144)
T2 construct: G35-A161; GPI anchor signal (C); expressed in transfected cells; host or cells: CHO cells, lentiviral pLenti-puro
T2 sequence (O00144 35-161): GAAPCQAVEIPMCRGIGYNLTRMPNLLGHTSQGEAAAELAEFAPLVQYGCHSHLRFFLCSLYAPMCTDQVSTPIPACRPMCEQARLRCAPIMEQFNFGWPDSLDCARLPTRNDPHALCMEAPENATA

T3: FZD8 CRD (Homo sapiens, UniProt Q9H461)
T3 construct: K31-D155; GPI anchor signal (C); expressed in transfected cells; host or cells: CHO cells, lentiviral pLenti-puro
T3 sequence (Q9H461 31-155): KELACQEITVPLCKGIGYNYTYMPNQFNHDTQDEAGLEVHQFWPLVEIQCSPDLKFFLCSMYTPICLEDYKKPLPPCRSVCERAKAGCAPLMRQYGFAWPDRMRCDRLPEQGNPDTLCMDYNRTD

T4: FZD3 CRD (Homo sapiens, UniProt Q9NPG1)
T4 construct: CRD of FZD1, FZD2, FZD3, FZD4, FZD5, FZD6, FZD7, FZD8, FZD9 or FZD10; GPI anchor signal (C); expressed in transfected cells; host or cells: CHO cells, lentiviral pLenti-puro
T4 sequence (Q9NPG1 23-136 limits assumed): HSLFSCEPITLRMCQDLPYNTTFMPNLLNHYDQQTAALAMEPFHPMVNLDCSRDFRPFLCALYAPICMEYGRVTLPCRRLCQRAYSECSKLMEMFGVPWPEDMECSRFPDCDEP

T5: FZD6 CRD (Homo sapiens, UniProt O60353)
T5 construct: S20-P146; GPI anchor signal (C); expressed in transfected cells; host or cells: CHO cells, lentiviral pLenti-puro
T5 sequence (O60353 20-146): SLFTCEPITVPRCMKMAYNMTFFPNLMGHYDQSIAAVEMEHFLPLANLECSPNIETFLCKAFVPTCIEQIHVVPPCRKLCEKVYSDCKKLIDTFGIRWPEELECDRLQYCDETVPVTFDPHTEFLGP


What was measured:
Assay in all cases: Immunofluorescence of anti-FZD5 Fab binding to CHO cells overexpressing Frizzled CRD
Design in all cases: key: −: no binding; +: very weak binder; ++: weak binder; +++: good binder; ++++: very good binder
FZD5 CRD = biological target: T1, FZD5 CRD
Method in brief: (§1)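 CHO panel, 10 lines, each w/ one human FZD CRD-myc-GPI (lentiviral). Anti-FZD5 Fabs applied; surface binding scored by IF, cross-checked by FACS.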

FZD1 CRD = biological target: T6, FZD1 CRD (Homo sapiens, UniProt Q9UP38)
T6 construct: D112-P238; GPI anchor signal (C); expressed in transfected cells; host or cells: CHO cells, lentiviral pLenti-puro
Method in brief: as §1

FZD9 CRD = biological target: T2, FZD9 CRD
Method in brief: as §1

FZD8 CRD = biological target: T3, FZD8 CRD
Method in brief: as §1

FZD3 CRD = biological target: T4, FZD3 CRD
Method in brief: as §1

FZD6 CRD = biological target: T5, FZD6 CRD
Method in brief: as §1

FZD7 CRD = biological target: T7, FZD7 CRD (Homo sapiens, UniProt O75084)
T7 construct: D45-S169; GPI anchor signal (C); expressed in transfected cells; host or cells: CHO cells, lentiviral pLenti-puro
Method in brief: as §1

Immunofluorescence binding, Frizzled CRD overexpressed on CHO cells: FZD5 (FZD5 CRD) | Immunofluorescence binding, Frizzled CRD overexpressed on CHO cells: FZD1 (FZD1 CRD) | Immunofluorescence binding, Frizzled CRD overexpressed on CHO cells: FZD9 (FZD9 CRD) | Immunofluorescence binding, Frizzled CRD overexpressed on CHO cells: FZD8 (FZD8 CRD) | Immunofluorescence binding, Frizzled CRD overexpressed on CHO cells: FZD3 (FZD3 CRD) | Immunofluorescence binding, Frizzled CRD overexpressed on CHO cells: FZD6 (FZD6 CRD) | Immunofluorescence binding, Frizzled CRD overexpressed on CHO cells: FZD7 (FZD7 CRD) | Molecule
++++ | − | − | + | − | − | − | Fab-2936: anti-FZD5 Fab with antibody variable region Fv-2936; CDR SEQ ID NOs: 35, 36, 75, 112, 151, 179 (antibody, V domains shown) VH: EVQLVESGGGLVQPGGSLRLSCAASGFNISYYYMHWVRQAPGKGLEWVASIYSSSGSTSYADSVKGRFTISADTSKNTAYLQMNSLRAEDTAVYYCARAAMDYWGQGTLVTVSS VL: DIQMTQSPSSLSASVGDRVTITCRASQSVSSAVAWYQQKPGKAPKLLIYSASSLYSGVPSRFSGSRSGTDFTLTISSLQPEDFATYYCQQWYAASLITFGQGTKVEIK
++++ | − | − | + | − | − | − | Fab-2926: anti-FZD5 Fab with antibody variable region Fv-2926; CDR SEQ ID NOs: 35, 36, 65, 103, 141, 173 (antibody, V domains shown) VH: EVQLVESGGGLVQPGGSLRLSCAASGFNIYSSYMHWVRQAPGKGLEWVASIYPSSSSTSYADSVKGRFTISADTSKNTAYLQMNSLRAEDTAVYYCARGGLDYWGQGTLVTVSS VL: DIQMTQSPSSLSASVGDRVTITCRASQSVSSAVAWYQQKPGKAPKLLIYSASSLYSGVPSRFSGSRSGTDFTLTISSLQPEDFATYYCQQWYHGGSLFTFGQGTKVEIK
